Experimental data taken from patent US7514534 (DYAX, dated 2009).
Where a chain is given by its changes, count along the chain named.

T1: MMP-26 catalytic domain, tagged with hexa-histidine (human, UniProt Q9NRE1 90-261)
T1 construct: the forward primer adds Met-Ala before it; also called MMP-26 target protein; Matrilysin-2; not shown: Also any N-terminal residues added by the forward primer (Met-Ala according to our card; the primers were not visible to me)
T1 sequence: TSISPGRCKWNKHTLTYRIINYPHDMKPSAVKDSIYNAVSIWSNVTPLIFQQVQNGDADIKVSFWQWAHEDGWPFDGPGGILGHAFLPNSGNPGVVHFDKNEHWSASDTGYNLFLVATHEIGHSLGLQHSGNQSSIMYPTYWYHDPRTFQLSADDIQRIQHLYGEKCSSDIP

B1: D02 (antibody, human IgG4, V domains shown)
VH: EVQLLESGGGLVQPGGSLRLSCAASGFTFSWYDMAWVRQAPGKGLEWVSRIVPSGGHTSYADSVKGRFTISRDNFKNTLYLQMNSLRAEDTAVYYCARRASRPEFFDYWGQGALVTVSS
VL: DIQMTQSPSFLSASVGDRVTITCRASQGISTYLAWYQQKPGKAPKVLIYTASTLQSGVPSRFSGSGSGTEFTLTISSLQPEDFATYYCQQSYITPPEVTFGPGTKVDIKR
notes: whole human IgG4
B2: D03 (antibody, human IgG4, V domains shown)
VH: EVQLLESGGGLVQPGGSLRLSCAASGFTFSWYRMDWVRQAPGKGLEWVSVIGSSGGMTYYADSVKGRFTISRDNSKNTLYLQMNSLRAEDTAVYYCARRVVGGAGMDVWGQGTTVTVSS
VL: DIQMTQSPSAMSASVGDRVTITCRASQVMINYIAWFRQKPGKVPERLIYAASTLQNGVPSRFSGSGSGTDFTLTISRLEPEDFAVYYCQHRITWPPALTFGGGTTVEIKR
notes: whole human IgG4
B3: D04 (antibody, human IgG4, V domains shown)
VH: EVQLLESGGGLVQPGGSLRLSCAASGFTFSDYQMMWVRQAPGKGLEWVSRISPSGGMTRYADSVKGRFTISRDNSKNTLYLPMNSLRAEDTAVYYCARSGPYYFDYWGQGTLVTVSS
VL: DIQMTQSPSSLSASVGDRVAITCRASQSIDTYLNWYQQKPGKAPKLLIYAASKLEDGVPSRFSGSGTGTDFTLTIRSLQPEDFASYFCQQSYSSPGITFGPGTKVEIKR
notes: whole human IgG4
B4: D06 (antibody, human IgG4, V domains shown)
VH: EVQLLESGGGLVQPGGSLRLSCAASGFTFSGYIMEWVRQAPGKGLEWVSVIVSSGGFTMYADSVKGRFTISRDNSKNTLYLQMNSLRAEDTAVYYCARVGDSKGGYYLDYWGQGTLVTVSS
VL: DIQMTQSPSSLSASVGDRVTITCRTSQIINTYLNWYQQKPGKAPKLLIYAASTLQGGVPSRFSGSGSGTDFTLTIKSLQPDDFATYYCQQSYTSPRTFGQGTKVEIKR
notes: whole human IgG4
B5: A04 (antibody, human IgG4, V domains shown)
VH: EVQLLESGGGLVQPGGSLRLSCAASGFTFSEYNMAWVRQAPGKGLEWVSRIGSSGGKTKYADSVKGRFTISRDNSKNTLYLQMNSLRAEDTAVYYCARDEAPDYGDDAEAFDIWGQGTMVTVSS
VL: QSALTQPPSASGTPGQRVTISCSGGYSNMGSNYAHWYQQVPGTAPKLLIYNNNQRPSGVPDRFSGSKSGTSASLAISGLRSEDEADYYCAAWDENLSGPVFGTGTKVTVLG
notes: whole human IgG4
B6: D07 (antibody, human IgG4, V domains shown)
VH: EVQLLESGGGLVQPGGSLRLSCAASGFTFSEYNMFWVRQAPGKGLEWVSYIYSSGGSTDYADSVKGRFTISRDNSKNTLYLQMNSLRAEDTAVYYCARVGIAARPFDPWGQGTLVTVSS
VL: QSELTQPASVSGSPGQSITISCTGTNSDIGGYNYVSWYQQHPGKVPKLLIFEVNNRPSGVSSRFSGSKSGDTASLTISGLQPEDEAVYYCGSFTVSVTYVFGTGTKVTVLG
notes: whole human IgG4
B7: D08 (antibody, human IgG4, V domains shown)
VH: EVQLLESGGGLVQPGGSLRLSCAASGFTFSFYAMWWVRQAPGKGLEWVSRIYSSGGKTWYADSVKGRFTISRDNSKNTLYLQMNSLRAEDTAVYYCARVGMSTYAFDIWGQGTMVTVSS
VL: DIQMTQSPSSLSASVGDRVTITCRASQSISDYLNWYQQKPGKAPDLLIYAASSLQSGVPSRFSGSGSGTDFTLTVSSLQPEDFATYFCQQSYSIPLTFGGGTKVEITR
notes: whole human IgG4
B8: D09 (antibody, V domains shown)
VH: EVQLLESGGGLVQPGGSLRLSCAASGFTFSHYNMHWVRQAPGKGLEWVSGIVSSGGNTGYADSVKGRFTISRDNSKNTLYLQMNSLRAEDTAVDYCARVVRYSSGWYYWFDPWGQGTLVTVSS
VL: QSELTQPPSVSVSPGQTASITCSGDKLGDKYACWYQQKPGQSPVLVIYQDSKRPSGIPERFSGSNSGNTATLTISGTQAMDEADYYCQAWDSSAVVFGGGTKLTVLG
notes: whole human IgG4
B9: A05 (antibody, human IgG4, V domains shown)
VH: EVQLLESGGGLVQPGGSLRLSCAASGFTFSVYSMNWVRQAPGKGLEWVSYIVPSGGNTPYADSVKGRFTISRDNSKNTLYLQMNSLRAEDTAVYYCARDGAATVDLDYWGQGTLVTVSS
VL: DIQMTQSPSSLSLSPGERATLSCRASQSVSSYLAWYQQKPGQAPRLLIYDASNRATGIPARFSGSGSGTDFTLTISSLEPEDFAVYYCQQRSNWPRTFGGGTKVEIKR
notes: whole human IgG4
B10: A06 (antibody, human IgG4, V domains shown)
VH: EVQLLESGGGLVQPGGSLRLSCAASGFTFSPYHMGWVRQAPGKGLEWVSGIYPSGGWTNYADSVKGRFTISRDNSKNTLYLQMNSLRAEDTAVYYCARDGYSSGWFRYWGQGTLVTVSS
VL: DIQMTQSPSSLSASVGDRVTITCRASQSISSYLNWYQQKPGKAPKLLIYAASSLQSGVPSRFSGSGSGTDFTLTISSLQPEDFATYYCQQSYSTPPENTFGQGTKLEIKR
notes: whole human IgG4
B11: A07 (antibody, human IgG4, V domains shown)
VH: EVQLLESGGGLVQPGGSLRLSCAASGFTFSEYNMMWVRQAPGKGLEWVSVISPSGGGTLYADSVKGRFTISRDNSKNTLYLQMNSLRAEDTAVYYCARDLNNSSPPDSNDAFDIWGRGTMVTVSS
VL: QSELTQPPSASGSPGQSVTISCTGTSSDVGGYNYVSWYQQHPDKAPKLLIYEVTQRPSGVPDRFSGSRSGNTASLTVSGLQAEDEADYYCSSYAGRNNLYVFGPGTKVTVLG
notes: whole human IgG4
B12: A08 (antibody, human IgG4, V domains shown)
VH: EVQLLESGGGLVQPGGSLRLSCAASGFTFSVYDMPWVRQAPGKGLEWVSVIYPSGGFTRYADSVKGRFTISRDNSKNTLYLQMNSLRAEDTAVYYCAADPTIQLWAYYYGMDVWGQGTTVTVSS
VL: B5 VL with A3V, A10V, S27P, V40L, N52D, E94D, N95S, T103G, V107L
notes: whole human IgG4
B13: A09 (antibody, human IgG4, V domains shown)
VH: EVQLLESGGGLVQPGGSLRLSCAASGFTFSWYDMYWVRQAPGKGLEWVSSIYSSGGYTAYADSVKGRFTISRDNSKNTLYLQMNSLRAEDTAVYYCAKDRDPCSRTTCYNWFDPWGQGTLVTVSS
VL: QSELTQPPSASGTPGQRVTISCSGGSSNIGSNFVYWYRQLPGTAPKLLIYRNYQRPSGVPDRFSGSKSGTSASLAISGLLSEDEADYYCAAWDDNVGGVFGSGTKVTVLG
notes: whole human IgG4

Legend:
[1] = target: T1, MMP-26 catalytic domain, tagged with …; test: bead-based ELISA, MMP-26 on nickel beads, IgG4 culture supernatant
Experimental: Reformatted and expressed full-length MMP-26 binding IgG4 antibodies were tested for specificity in a bead-based ELISA. Approximately 1.25 μg of MMP-26 protein was bound to nickel-coated magnetic beads (Novagen) which had been pre-blocked with phosphate buffered saline containing 5% (w/v) nonfat dry milk and 0.05% (v/v) Tween-20. The beads were washed in phosphate buffered saline containing 0.05% (v/v) Tween-20 (PBS-T) and 100 uls of unpurified cell culture supernatant containing transiently produced MMP-26-binding antibodies was added and incubated on a rotator for sixty minutes. The beads were washed with PBS-T and MMP-26-binding antibodies were detected with an HRP-conjugated anti-human secondary antibody. Data is expressed in fold over background where background consists of beads, blocking agent, and culture supernatant containing target antibody (Table 2; in this table, Results shown as fold over background (F>B) where background consists of beads, blocking agent, and culture supernatant).

MMP-3 = target: T2, MMP-3 (UniProt P08254 100-477, limits assumed); test: cross-reactivity ELISA on coated MMP
T2 construct: also called stromelysin-1
Experimental: (§1) Twenty-one of the reformatted MMP-26 antibodies were tested for MMP cross reactivity by ELISA analysis. MMP-3, MMP-7, MMP-9, and MMP-12 were coated onto Immulon 2 HB 96-well plates at a concentration of 1 μg/ml for 1 hour at 37° C. The plates were blocked with PBS-T containing 5% (w/v) nonfat dry milk for thirty minutes and subsequently washed with PBS-T. Each antibody was tested for reactivity to all of the above mentioned MMPs at a concentration of 2 μg/ml with an incubation time of 1 hour. Bound antibody was detected with an HRP-conjugated anti-human secondary antibody (Table 3, NT=not tested.).

MMP-9 = target: T3, MMP-9 (UniProt P14780 107-707, limits assumed); test: cross-reactivity ELISA on coated MMP
T3 construct: also called gelatinase
Experimental: as §1

T3 sequence (P14780 107-707 limits assumed): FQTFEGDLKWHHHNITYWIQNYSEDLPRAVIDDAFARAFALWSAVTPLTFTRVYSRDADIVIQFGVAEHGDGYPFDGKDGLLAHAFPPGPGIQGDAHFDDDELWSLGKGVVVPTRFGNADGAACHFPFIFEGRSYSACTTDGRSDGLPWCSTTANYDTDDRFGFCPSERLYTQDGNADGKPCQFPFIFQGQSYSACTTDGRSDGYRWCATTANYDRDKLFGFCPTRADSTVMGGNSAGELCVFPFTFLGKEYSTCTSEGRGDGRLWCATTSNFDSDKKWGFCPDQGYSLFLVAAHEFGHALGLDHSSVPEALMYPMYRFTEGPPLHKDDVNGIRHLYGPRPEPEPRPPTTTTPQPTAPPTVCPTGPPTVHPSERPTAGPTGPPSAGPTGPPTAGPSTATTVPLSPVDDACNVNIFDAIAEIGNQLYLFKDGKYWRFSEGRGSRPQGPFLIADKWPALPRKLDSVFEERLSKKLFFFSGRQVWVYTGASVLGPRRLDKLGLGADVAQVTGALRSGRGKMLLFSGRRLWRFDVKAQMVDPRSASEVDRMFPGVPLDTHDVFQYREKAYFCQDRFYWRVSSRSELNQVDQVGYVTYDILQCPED
T2 sequence (P08254 100-477 limits assumed): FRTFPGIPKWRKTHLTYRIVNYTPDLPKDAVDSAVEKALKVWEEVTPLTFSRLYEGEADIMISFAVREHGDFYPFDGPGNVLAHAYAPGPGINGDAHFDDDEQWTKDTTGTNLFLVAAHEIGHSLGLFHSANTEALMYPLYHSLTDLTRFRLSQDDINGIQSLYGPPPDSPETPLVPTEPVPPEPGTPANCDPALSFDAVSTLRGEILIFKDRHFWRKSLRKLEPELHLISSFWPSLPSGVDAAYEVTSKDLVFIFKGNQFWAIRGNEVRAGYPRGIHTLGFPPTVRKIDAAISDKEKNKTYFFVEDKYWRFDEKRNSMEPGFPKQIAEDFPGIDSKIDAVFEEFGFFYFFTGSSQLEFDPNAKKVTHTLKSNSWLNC

F > B (fold over background) [1] [fold over background] | binding result (MMP-3) | binding result (MMP-9) | Binder
3.3 | no binding (tested: 2 µg/ml) | no binding (tested: 2 µg/ml) | B1
2.4 | no binding (tested: 2 µg/ml) | no binding (tested: 2 µg/ml) | B2
2.6 | no binding (tested: 2 µg/ml) | no binding (tested: 2 µg/ml) | B3
3.5 | no binding (tested: 2 µg/ml) | no binding (tested: 2 µg/ml) | B4
3.17 | no binding (tested: 2 µg/ml) | no binding (tested: 2 µg/ml) | B5
3.3 | no binding (tested: 2 µg/ml) | no binding (tested: 2 µg/ml) | B6
3 | no binding (tested: 2 µg/ml) | no binding (tested: 2 µg/ml) | B7
4.3 | no binding (tested: 2 µg/ml) | no binding (tested: 2 µg/ml) | B8
2.48 | no binding (tested: 2 µg/ml) | no binding (tested: 2 µg/ml) | B9
5.4 | no binding (tested: 2 µg/ml) | no binding (tested: 2 µg/ml) | B10
8.38 | no binding (tested: 2 µg/ml) | no binding (tested: 2 µg/ml) | B11
1.94 | no binding (tested: 2 µg/ml) | no binding (tested: 2 µg/ml) | B12
2.5 | no binding (tested: 2 µg/ml) | no binding (tested: 2 µg/ml) | B13
